{"source": "the RNAGym collection of RNA variant scans (doi:10.7554/elife.80360)", "parents": {"B1": {"name": "CPEB3 Ribozyme (parent)", "chain": "GGGGGCCACAGCAGAAGCGUUCACGUCGCGGCCCCUGUCAGAUUCUGGUGAAUCUGCGAAUUCUGCUGU"}}, "data": [{"variants_of": "B1", "experiment": "self-cleavage, relative activity (ratio to wild type); higher = more cleavage; co-transcriptional", "values": [{"variant": "C27U G41A", "self-cleavage": 0.147}, {"variant": "G28A C45U", "self-cleavage": 0.202}, {"variant": "C29A A59C", "self-cleavage": 0.274}, {"variant": "C29A A59U", "self-cleavage": 0.283}, {"variant": "G28C U55A", "self-cleavage": 0.241}, {"variant": "C27U C39U", "self-cleavage": 0.254}, {"variant": "G30A A52G", "self-cleavage": 0.852}, {"variant": "G30A G31A", "self-cleavage": 0.365}, {"variant": "G30A G31U", "self-cleavage": 0.215}, {"variant": "C29G G68U", "self-cleavage": 0.8}, {"variant": "G28U U53C", "self-cleavage": 0.157}, {"variant": "C27U G47A", "self-cleavage": 0.459}, {"variant": "C29G U67A", "self-cleavage": 0.517}, {"variant": "C29G U67C", "self-cleavage": 0.47}, {"variant": "C29G U67G", "self-cleavage": 0.482}, {"variant": "G28U C29G", "self-cleavage": 0.129}, {"variant": "G28U A52G", "self-cleavage": 0.18}, {"variant": "G28U U43A", "self-cleavage": 0.135}, {"variant": "G28U U43G", "self-cleavage": 0.0809}, {"variant": "C27U G31C", "self-cleavage": 0.143}, {"variant": "C29G C66G", "self-cleavage": 0.369}, {"variant": "C29A U44C", "self-cleavage": 0.515}, {"variant": "C29A U44G", "self-cleavage": 0.521}, {"variant": "C29U C32A", "self-cleavage": 0.295}, {"variant": "C29G U64A", "self-cleavage": 0.191}, {"variant": "C29U U64A", "self-cleavage": 0.171}, {"variant": "C29U U64G", "self-cleavage": 0.206}, {"variant": "C27U U38G", "self-cleavage": 0.17}, {"variant": "C29A G50C", "self-cleavage": 0.71}, {"variant": "G28A G31U", "self-cleavage": 0.197}, {"variant": "G28A G31A", "self-cleavage": 0.153}, {"variant": "G28U C57A", "self-cleavage": 0.188}, {"variant": "G28U C57G", "self-cleavage": 0.161}, {"variant": "C29A G47A", "self-cleavage": 0.796}, {"variant": "G28A U62G", "self-cleavage": 0.208}, {"variant": "G28C U62G", "self-cleavage": 0.209}, {"variant": "C29A U43C", "self-cleavage": 0.465}, {"variant": "C29A U43G", "self-cleavage": 0.364}, {"variant": "C29U U53G", "self-cleavage": 0.264}, {"variant": "C29U U53A", "self-cleavage": 0.267}, {"variant": "C29U U53C", "self-cleavage": 0.143}, {"variant": "G28C U61A", "self-cleavage": 0.256}, {"variant": "G28C U61G", "self-cleavage": 0.229}, {"variant": "G30A G37C", "self-cleavage": 0.19}, {"variant": "G30A G37U", "self-cleavage": 0.196}, {"variant": "G30A G37A", "self-cleavage": 0.23}, {"variant": "G28U C35U", "self-cleavage": 0.192}, {"variant": "C29A G56A", "self-cleavage": 0.492}, {"variant": "C29A G56U", "self-cleavage": 0.367}, {"variant": "C29A G56C", "self-cleavage": 0.297}, {"variant": "C29U C54A", "self-cleavage": 0.169}, {"variant": "G30A A60U", "self-cleavage": 0.367}, {"variant": "G30A A60G", "self-cleavage": 0.395}, {"variant": "C29A C35A", "self-cleavage": 0.157}, {"variant": "G28A U61G", "self-cleavage": 0.214}, {"variant": "G30A U38A", "self-cleavage": 0.621}, {"variant": "G30A C33G", "self-cleavage": 0.227}, {"variant": "C29A U69A", "self-cleavage": 0.91}, {"variant": "C29A U69G", "self-cleavage": 0.864}, {"variant": "C27U U69A", "self-cleavage": 0.502}, {"variant": "G28U U61A", "self-cleavage": 0.204}, {"variant": "C29A G37A", "self-cleavage": 0.207}, {"variant": "C29G C63G", "self-cleavage": 0.183}, {"variant": "C29G G41C", "self-cleavage": 0.173}, {"variant": "C29G G41U", "self-cleavage": 0.21}, {"variant": "G28U U62C", "self-cleavage": 0.127}, {"variant": "C29A U46A", "self-cleavage": 0.845}, {"variant": "C29A U46C", "self-cleavage": 0.68}, {"variant": "G30A G58U", "self-cleavage": 0.896}, {"variant": "G30A G58A", "self-cleavage": 0.682}, {"variant": "G30A G58C", "self-cleavage": 0.858}, {"variant": "C29U A60C", "self-cleavage": 0.223}, {"variant": "C29U U44A", "self-cleavage": 0.26}, {"variant": "G28C A42G", "self-cleavage": 0.128}, {"variant": "G28C A42C", "self-cleavage": 0.183}, {"variant": "G28C U67A", "self-cleavage": 0.182}, {"variant": "G28U G50U", "self-cleavage": 0.165}, {"variant": "G30A C45A", "self-cleavage": 0.807}, {"variant": "G28A U53A", "self-cleavage": 0.198}, {"variant": "C29U C35A", "self-cleavage": 0.186}, {"variant": "C29U C35G", "self-cleavage": 0.237}, {"variant": "G28U G48C", "self-cleavage": 0.169}, {"variant": "G28U G48U", "self-cleavage": 0.198}, {"variant": "G28A G47A", "self-cleavage": 0.22}]}]}
